This is an account of results in the supplement of paper PMC9170038.

The series has as its system MS2 coat protein. Kind of series: apparent KD of MS2 coat protein; designed switch direction (-1 OFF switch, 1 ON switch): 1; higher = weaker reporter binding. The essentials:
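The apparent KD reported per design is the median over clusters of curve fits to normalised cluster fluorescence. The RNA switches were transcribed on Illumina chips by stalled E. coli RNA polymerase. SNAP-549-labelled MS2 coat protein was titrated from 0.7 or 1.5 nM, doubling up to 3 µM, in Tris-HCl pH 7.5 buffer containing KCl, MgCl2, BSA, DTT, tRNA and Tween-20, with no input, 200 uM small-molecule ligand, or an oligonucleotide input.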

Setting [1] is: input ligand: microRNA oligo, concentration not stated.
Where [2] appears, read: Eterna round: R95, input ligand: FMN 200 uM.
The mark [3] stands for this setting: Eterna round: R95, input ligand: microRNA oligo, concentration not stated.
[4] abbreviates: Eterna round: R95, input ligand: none.

Consider “CUGCUCGGGUGAGGAUAUGCCGCCGUUUCGGCUGCAGAAGGUGCUACGUUACAUGAGGAUCACCCAUGUCUCUGUUGUUUCGUC [salish99_SSNG1_r04_967] (Eterna round: R96, puzzle: Same State NG 1)”, for which the “apparent KD of MS2 coat protein” value is 74 nM (input ligand: FMN 200 uM), 41 nM under setting [1] and 57.3 nM (input ligand: none).

For the sequence “CUGCUCGUGUGAGGAUAUGCCGCCGUUUCGGCUGCAGAAGGUGCUACGUUACAUGAGGAUCACCCAUGUCUCUGUUGUUUCGUA [salish99_SSNG1_r04_948] (Eterna round: R96, puzzle: Same State NG 1)”, the “apparent KD of MS2 coat protein” value runs as follows: (input ligand: FMN 200 uM) 40.1 nM; under setting [1], 28.8 nM; (input ligand: none) 35.9 nM.

Turning to “GAAAAACAUGAGGAUCACCCAUGUAGAAAUAUGGGAGGAUAUACAAAGUCGAAAGACAAAGUAGAAGGCCUAAAAG [Mat - Same State 1 - Eli mod - D2] (Eterna round: R96, puzzle: Same State 1)”, the “apparent KD of MS2 coat protein” value under setting [1] stood at 96.8 nM.

Turning to “GAAAGAGGAAGCGAGGAUAUCGUGAAGAGUACAUGAGGAUCACCCAUGUUGUAGGUAAAGGUAGGCGAGAAGGCGCAGGAGAAGA [JR_SS2_Sub0102] (puzzle: Same State 2)”, the “apparent KD of MS2 coat protein” value reads like this: under setting [2], 23.9 nM; under setting [3], 23.7 nM; under setting [4], 33.2 nM.

In the case of “GAAUAGUUGAGAGGAUAUGUAUUAUUGUAGGAUACAGAAGGUUUUAACAUGAGGAUCACCCAUGUAGGACUAUAUAUGUGAAUA [Parity 98 - Jieux - Same State NG 1] (Eterna round: R96, puzzle: Same State NG 1)”, the “apparent KD of MS2 coat protein” value under setting [1] is 11.7 nM.

For “GAGAGAGGGUGAGGAUAUUGAGUAAUAAUGAUACAAGAAGGCACAGACAUGAGGAUCACCCAUGUGGGAAUAAUCCAGAGAGAG [Parity 6 - Jieux - Same State NG 1] (Eterna round: R96, puzzle: Same State NG 1)”, the “apparent KD of MS2 coat protein” value is 262 nM (input ligand: FMN 200 uM), 153 nM under setting [1] and 289 nM (input ligand: none).

On to “GAGCCAGUCCGAGGAUAUUCAACAUGAGGAUCACCCAUGUAGGCUCAGAAAAGAAAAGAGCCUUGGGAGAAGGCGGACUGGCUC [Xeonanisa<<7] (Eterna round: R96, puzzle: Same State NG 2)”, for which the “apparent KD of MS2 coat protein” value stood at 9.61 nM (input ligand: FMN 200 uM), 9.01 nM under setting [1] and 14.1 nM (input ligand: none).

On to “GAGCCAGUCCGAGGAUAUUCAUAAUUAAAUACAUGAGGAUCACCCAUGUAGGCAAGAGAGCCUUGGGAGAAGGCGGACUGGCUC [Xeonanisa>>2] (Eterna round: R96, puzzle: Same State NG 2)”, for which the “apparent KD of MS2 coat protein” value stood at 12.8 nM (input ligand: FMN 200 uM), 25 nM under setting [1] and 42.9 nM (input ligand: none).

Turning to “GAGCCAGUCCGAGGAUAUUCGUAGGAACACAUGAGGAUCACCCAUGUGGGCUCAGAAGAGCCCUGGGAGAAGGCGGGCUGGCUC [SS-NG2-LRO18] (Eterna round: R96, puzzle: Same State NG 2)”, the “apparent KD of MS2 coat protein” value reads like this: (input ligand: FMN 200 uM) 7.53 nM; under setting [1], 8.45 nM; (input ligand: none) 17.5 nM.

For “GAGGAACAGGCCAACAUGAGGAUCACCCAUGUCCUCGCAUUUCAGGAUAUCUGGAAGAAGAAGAAAGAGAAGGGAAGGUGAAGC [AK SSNG3-V2-34.1] (Eterna round: R96, puzzle: Same State NG 3)”, the “apparent KD of MS2 coat protein” value runs as follows: (input ligand: FMN 200 uM) 114 nM; under setting [1], 101 nM; (input ligand: none) 112 nM.

Regarding “GAGGAUGAACUACAGGAUAUAUAGCAGAUGACAUGAGGAUCACCCAUGUAAGAGAAAGGAGGGAGAUAGAAGGGUAUGGGAGGUG [JR_SS2_Sub037] (puzzle: Same State 2)”, the “apparent KD of MS2 coat protein” value runs as follows: under setting [2], 34.4 nM; under setting [3], 28.6 nM; under setting [4], 27.1 nM.
